From patent US20040228836A1

Biological target: intranuclear antigens consisting of histone DNA complexes (in fixed Raji cells)
Assay: 125I-labeled MAb incubated with fixed Raji cells; Scatchard analysis of bound radioactivity

chimeric TNT-1 monoclonal antibody (chTNT-1)
Ka: 2.5e+09 M⁻¹
